Starred links: 1 amine or outer side, 2 acyl side, 3 side chain; linkers in the order of their positions; H or OH if unused. Non-standard residues stand in square brackets, D forms with d. *: point of attachment. C18 diacid = O=C(O)CCCCCCCCCCCCCCCCC(=O)*; dBip = N[C@H](Cc1ccc(-c2ccccc2)cc1)C(=O)O; Oic = O=C(O)[C@@H]1C[C@@H]2CCCC[C@@H]2N1; dPhe(4-Cl) = N[C@H](Cc1ccc(Cl)cc1)C(=O)O; Heptadecanoyl = CCCCCCCCCCCCCCCCC(=O)*; Phe(4-I) = N[C@@H](Cc1ccc(I)cc1)C(=O)O; γGlu = O=C(O)[C@H](CCC(=O)[*:2])N[*:1]; 2Nal = N[C@@H](Cc1ccc2ccccc2c1)C(=O)O; Pentadecanoyl = CCCCCCCCCCCCCCC(=O)*; NMeR = CN[C@@H](CCCNC(=N)N)C(=O)O; Tridecanoyl = CCCCCCCCCCCCC(=O)*; hArg = N=C(N)NCCCC[C@H](N)C(=O)O; Tic = O=C(O)[C@@H]1Cc2ccccc2CN1; Cha = N[C@@H](CC1CCCCC1)C(=O)O; NMeL = CN[C@@H](CC(C)C)C(=O)O; Nle = CCCC[C@H](N)C(=O)O; Orn = NCCC[C@H](N)C(=O)O; AEEA = NCCOCCOCC(=O)O
Experiments:
human APJ receptor = target: T1, human APJ receptor (human, UniProt P35414 1-380); assay: cell-based or functional assay
T1 sequence (looked up): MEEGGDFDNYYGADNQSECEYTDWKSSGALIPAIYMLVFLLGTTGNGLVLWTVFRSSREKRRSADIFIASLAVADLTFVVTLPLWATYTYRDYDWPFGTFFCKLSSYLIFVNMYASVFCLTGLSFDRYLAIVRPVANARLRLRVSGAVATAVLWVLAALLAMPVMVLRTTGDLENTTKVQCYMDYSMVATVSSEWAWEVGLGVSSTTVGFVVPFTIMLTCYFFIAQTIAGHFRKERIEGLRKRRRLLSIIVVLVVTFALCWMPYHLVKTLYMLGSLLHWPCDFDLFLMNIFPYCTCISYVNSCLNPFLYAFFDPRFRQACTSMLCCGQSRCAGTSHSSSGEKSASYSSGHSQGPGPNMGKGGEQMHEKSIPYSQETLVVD

rat APJ receptor = target: T2, rat APJ receptor (rat, UniProt Q9JHG3 1-377); assay: cell-based or functional assay
T2 sequence (looked up): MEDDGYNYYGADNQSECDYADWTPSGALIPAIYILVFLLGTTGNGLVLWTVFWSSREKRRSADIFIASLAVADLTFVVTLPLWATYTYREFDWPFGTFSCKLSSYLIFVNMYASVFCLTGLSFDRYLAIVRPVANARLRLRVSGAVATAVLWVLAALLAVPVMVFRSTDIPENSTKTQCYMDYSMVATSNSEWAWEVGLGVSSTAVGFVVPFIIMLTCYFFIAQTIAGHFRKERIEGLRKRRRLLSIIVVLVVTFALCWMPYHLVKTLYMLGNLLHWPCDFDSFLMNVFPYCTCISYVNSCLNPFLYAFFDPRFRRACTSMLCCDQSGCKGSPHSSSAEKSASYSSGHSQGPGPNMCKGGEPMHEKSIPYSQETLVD

B1: apelin polypeptide SEQ ID NO: 242 (peptide)
peptide: Heptadecanoyl-[γGlu][AEEA][AEEA][hArg][dQ][hArg]P[NMeR][Cha]SHKG[Oic][Nle]P[dPhe(4-Cl)]-OH
SMILES: CCCCCCCCCCCCCCCCC(=O)N[C@@H](CCC(=O)NCCOCCOCC(=O)NCCOCCOCC(=O)N[C@@H](CCCCNC(=N)N)C(=O)N[C@H](CCC(N)=O)C(=O)N[C@@H](CCCCNC(=N)N)C(=O)N1CCC[C@H]1C(=O)N(C)[C@@H](CCCNC(=N)N)C(=O)N[C@@H](CC1CCCCC1)C(=O)N[C@@H](CO)C(=O)N[C@@H](Cc1c[nH]cn1)C(=O)N[C@@H](CCCCN)C(=O)NCC(=O)N1[C@H](C(=O)N[C@@H](CCCC)C(=O)N2CCC[C@H]2C(=O)N[C@H](Cc2ccc(Cl)cc2)C(=O)O)C[C@@H]2CCCC[C@@H]21)C(=O)O
Human APJ receptor
  EC50 Human APJ Receptor: 2.19 nM
Rat APJ receptor
  EC50 Rat APJ Receptor: 2.27 nM

B2: apelin polypeptide SEQ ID NO: 243 (peptide)
peptide: Heptadecanoyl-[γGlu][AEEA][AEEA][hArg]Q[dR]P[NMeR][Cha]SHKG[Oic][Nle]P[Tic]-OH
SMILES: CCCCCCCCCCCCCCCCC(=O)N[C@@H](CCC(=O)NCCOCCOCC(=O)NCCOCCOCC(=O)N[C@@H](CCCCNC(=N)N)C(=O)N[C@@H](CCC(N)=O)C(=O)N[C@H](CCCNC(=N)N)C(=O)N1CCC[C@H]1C(=O)N(C)[C@@H](CCCNC(=N)N)C(=O)N[C@@H](CC1CCCCC1)C(=O)N[C@@H](CO)C(=O)N[C@@H](Cc1c[nH]cn1)C(=O)N[C@@H](CCCCN)C(=O)NCC(=O)N1[C@H](C(=O)N[C@@H](CCCC)C(=O)N2CCC[C@H]2C(=O)N2Cc3ccccc3C[C@H]2C(=O)O)C[C@@H]2CCCC[C@@H]21)C(=O)O
Human APJ receptor
  EC50 Human APJ Receptor: 1.19 nM
Rat APJ receptor
  EC50 Rat APJ Receptor: 10.3 nM

## Ac-[hArg][hArg][dQ][hArg]P[dR][NMeL]SHKG[Oic][Phe(4-I)]P[dBip]-OH [apelin polypeptide SEQ ID NO: 19]
Human APJ receptor
  EC50 Human APJ Receptor: 0.533 nM
Rat APJ receptor
  EC50 Rat APJ Receptor: 0.757 nM

B3: apelin polypeptide SEQ ID NO: 244 (peptide)
peptide: Tridecanoyl-[γGlu][AEEA][AEEA]Q[dR]P[NMeR][Cha]SHKG[Oic][Nle]P[Tic]-OH
SMILES: CCCCCCCCCCCCC(=O)N[C@@H](CCC(=O)NCCOCCOCC(=O)NCCOCCOCC(=O)N[C@@H](CCC(N)=O)C(=O)N[C@H](CCCNC(=N)N)C(=O)N1CCC[C@H]1C(=O)N(C)[C@@H](CCCNC(=N)N)C(=O)N[C@@H](CC1CCCCC1)C(=O)N[C@@H](CO)C(=O)N[C@@H](Cc1c[nH]cn1)C(=O)N[C@@H](CCCCN)C(=O)NCC(=O)N1[C@H](C(=O)N[C@@H](CCCC)C(=O)N2CCC[C@H]2C(=O)N2Cc3ccccc3C[C@H]2C(=O)O)C[C@@H]2CCCC[C@@H]21)C(=O)O
Human APJ receptor
  EC50 Human APJ Receptor: 10.3 nM
Rat APJ receptor
  EC50 Rat APJ Receptor: 281 nM

B4: apelin polypeptide SEQ ID NO: 257 (peptide)
peptide: Tridecanoyl-[γGlu][AEEA][AEEA][Orn]F[hArg][hArg]QRP[hArg][NMeL]SHKG[Oic][Nle][2Nal]-OH
SMILES: CCCCCCCCCCCCC(=O)N[C@@H](CCC(=O)NCCOCCOCC(=O)NCCOCCOCC(=O)N[C@@H](CCCN)C(=O)N[C@@H](Cc1ccccc1)C(=O)N[C@@H](CCCCNC(=N)N)C(=O)N[C@@H](CCCCNC(=N)N)C(=O)N[C@@H](CCC(N)=O)C(=O)N[C@@H](CCCNC(=N)N)C(=O)N1CCC[C@H]1C(=O)N[C@@H](CCCCNC(=N)N)C(=O)N(C)[C@@H](CC(C)C)C(=O)N[C@@H](CO)C(=O)N[C@@H](Cc1c[nH]cn1)C(=O)N[C@@H](CCCCN)C(=O)NCC(=O)N1[C@H](C(=O)N[C@@H](CCCC)C(=O)N[C@@H](Cc2ccc3ccccc3c2)C(=O)O)C[C@@H]2CCCC[C@@H]21)C(=O)O
Human APJ receptor
  EC50 Human APJ Receptor: 1.49 nM
Rat APJ receptor
  EC50 Rat APJ Receptor: 3.14 nM

B5: apelin polypeptide SEQ ID NO: 258 (peptide)
peptide: Pentadecanoyl-[γGlu][AEEA][AEEA][Orn]F[hArg][hArg]QRP[hArg][NMeL]SHKG[Oic][Nle][2Nal]-OH
SMILES: CCCCCCCCCCCCCCC(=O)N[C@@H](CCC(=O)NCCOCCOCC(=O)NCCOCCOCC(=O)N[C@@H](CCCN)C(=O)N[C@@H](Cc1ccccc1)C(=O)N[C@@H](CCCCNC(=N)N)C(=O)N[C@@H](CCCCNC(=N)N)C(=O)N[C@@H](CCC(N)=O)C(=O)N[C@@H](CCCNC(=N)N)C(=O)N1CCC[C@H]1C(=O)N[C@@H](CCCCNC(=N)N)C(=O)N(C)[C@@H](CC(C)C)C(=O)N[C@@H](CO)C(=O)N[C@@H](Cc1c[nH]cn1)C(=O)N[C@@H](CCCCN)C(=O)NCC(=O)N1[C@H](C(=O)N[C@@H](CCCC)C(=O)N[C@@H](Cc2ccc3ccccc3c2)C(=O)O)C[C@@H]2CCCC[C@@H]21)C(=O)O
Human APJ receptor
  EC50 Human APJ Receptor: 1.75 nM
Rat APJ receptor
  EC50 Rat APJ Receptor: 2.57 nM

B6: apelin polypeptide SEQ ID NO: 259 (peptide)
peptide: Heptadecanoyl-[γGlu][AEEA][AEEA][Orn]F[hArg][hArg]QRP[hArg][NMeL]SHKG[Oic][Nle][2Nal]-OH
SMILES: CCCCCCCCCCCCCCCCC(=O)N[C@@H](CCC(=O)NCCOCCOCC(=O)NCCOCCOCC(=O)N[C@@H](CCCN)C(=O)N[C@@H](Cc1ccccc1)C(=O)N[C@@H](CCCCNC(=N)N)C(=O)N[C@@H](CCCCNC(=N)N)C(=O)N[C@@H](CCC(N)=O)C(=O)N[C@@H](CCCNC(=N)N)C(=O)N1CCC[C@H]1C(=O)N[C@@H](CCCCNC(=N)N)C(=O)N(C)[C@@H](CC(C)C)C(=O)N[C@@H](CO)C(=O)N[C@@H](Cc1c[nH]cn1)C(=O)N[C@@H](CCCCN)C(=O)NCC(=O)N1[C@H](C(=O)N[C@@H](CCCC)C(=O)N[C@@H](Cc2ccc3ccccc3c2)C(=O)O)C[C@@H]2CCCC[C@@H]21)C(=O)O
Human APJ receptor
  EC50 Human APJ Receptor: 2.59 nM
Rat APJ receptor
  EC50 Rat APJ Receptor: 2.09 nM

B7: apelin polypeptide SEQ ID NO: 260 (peptide)
peptide: {C18 diacid}-[γGlu][AEEA][AEEA][Orn]F[hArg][hArg]QRP[hArg][NMeL]SHKG[Oic][Nle][2Nal]-OH
SMILES: CCCC[C@H](NC(=O)[C@@H]1C[C@@H]2CCCC[C@@H]2N1C(=O)CNC(=O)[C@H](CCCCN)NC(=O)[C@H](Cc1c[nH]cn1)NC(=O)[C@H](CO)NC(=O)[C@H](CC(C)C)N(C)C(=O)[C@H](CCCCNC(=N)N)NC(=O)[C@@H]1CCCN1C(=O)[C@H](CCCNC(=N)N)NC(=O)[C@H](CCC(N)=O)NC(=O)[C@H](CCCCNC(=N)N)NC(=O)[C@H](CCCCNC(=N)N)NC(=O)[C@H](Cc1ccccc1)NC(=O)[C@H](CCCN)NC(=O)COCCOCCNC(=O)COCCOCCNC(=O)CC[C@H](NC(=O)CCCCCCCCCCCCCCCCC(=O)O)C(=O)O)C(=O)N[C@@H](Cc1ccc2ccccc2c1)C(=O)O
Human APJ receptor
  EC50 Human APJ Receptor: 48.5 nM
Rat APJ receptor
  EC50 Rat APJ Receptor: 75 nM

B8: apelin polypeptide SEQ ID NO: 261 (peptide)
peptide: Tridecanoyl-[γGlu][AEEA][AEEA][hArg][dR]Q[hArg]P[dR][NMeL]SHKG[Oic][Phe(4-I)]P[dBip]-OH
SMILES: CCCCCCCCCCCCC(=O)N[C@@H](CCC(=O)NCCOCCOCC(=O)NCCOCCOCC(=O)N[C@@H](CCCCNC(=N)N)C(=O)N[C@H](CCCNC(=N)N)C(=O)N[C@@H](CCC(N)=O)C(=O)N[C@@H](CCCCNC(=N)N)C(=O)N1CCC[C@H]1C(=O)N[C@H](CCCNC(=N)N)C(=O)N(C)[C@@H](CC(C)C)C(=O)N[C@@H](CO)C(=O)N[C@@H](Cc1c[nH]cn1)C(=O)N[C@@H](CCCCN)C(=O)NCC(=O)N1[C@H](C(=O)N[C@@H](Cc2ccc(I)cc2)C(=O)N2CCC[C@H]2C(=O)N[C@H](Cc2ccc(-c3ccccc3)cc2)C(=O)O)C[C@@H]2CCCC[C@@H]21)C(=O)O
Human APJ receptor
  EC50 Human APJ Receptor: 4.74 nM
Rat APJ receptor
  EC50 Rat APJ Receptor: 9.38 nM

Source: patent US10941182 (Amgen, dated 2021)
